From patent publication US8785135B2, “Mutant G-protein coupled receptors and methods for selecting them” (Heptares Therapeutics Limited, priority 2007, dated 2014)
Changes are numbered by the printed parent chain. Numbers in names are those of the source.

B1: A203L: A2aR point mutant (protein, UniProt P29274 1-412, looked up, variant A203L)
Adenosine receptor A2a: MPIMGSSVYITVELAIAVLAILGNVLVCWAVWLNSNLQNVTNYFVVSLAAADIAVGVLAIPFAITISTGFCAACHGCLFIACFVLVLTQSSIFSLLAIAIDRYIAIRIPLRYNGLVTGTRAKGIIAICWVLSFAIGLTPMLGWNNCGQPKEGKNHSQGCGEGQVACLFEDVVPMNYMVYFNFFACVLVPLLLMLGVYLRIFLLARRQLKQMESQPLPGERARSTLQKEVHAAKSLAIIVGLFALCWLPLHIINCFTFFCPDCSHAPLWLMYLAIVLSHTNSVVNPFIYAYRIREFRQTFRKIIRSHVLRQQEPFKAAGTSARVLAAHGSDGEQVSLRLNGHPPGVWANGSAPHPERRPNGYALGLVSGGSAQESQGNTGLPDVELLSHELKGVCPEPPGLDDPLAQDGAGVS
B2: L241A: A2aR point mutant (protein, UniProt P29274 1-412, looked up, variant L241A)
Adenosine receptor A2a: B1 Adenosine receptor A2a with L203A, L241A
B3: Q311A: A2aR point mutant (protein, UniProt P29274 1-412, looked up, variant Q311A)
Adenosine receptor A2a: B1 Adenosine receptor A2a with L203A, Q311A
B4: S223A: A2aR point mutant (protein, UniProt P29274 1-412, looked up, variant S223A)
Adenosine receptor A2a: B1 Adenosine receptor A2a with L203A, S223A
B5: S263A: A2aR point mutant (protein, UniProt P29274 1-412, looked up, variant S263A)
Adenosine receptor A2a: B1 Adenosine receptor A2a with L203A, S263A
B6: P260A: A2aR point mutant (protein, UniProt P29274 1-412, looked up, variant P260A)
Adenosine receptor A2a: B1 Adenosine receptor A2a with L203A, P260A
B7: L208A: A2aR point mutant (protein, UniProt P29274 1-412, looked up, variant L208A)
Adenosine receptor A2a: B1 Adenosine receptor A2a with L203A, L208A
B8: Q210A: A2aR point mutant (protein, UniProt P29274 1-412, looked up, variant Q210A)
Adenosine receptor A2a: B1 Adenosine receptor A2a with L203A, Q210A
B9: R220A: A2aR point mutant (protein, UniProt P29274 1-412, looked up, variant R220A)
Adenosine receptor A2a: B1 Adenosine receptor A2a with L203A, R220A
B10: E219A: A2aR point mutant (protein, UniProt P29274 1-412, looked up, variant E219A)
Adenosine receptor A2a: B1 Adenosine receptor A2a with L203A, E219A
B11: Q226A: A2aR point mutant (protein, UniProt P29274 1-412, looked up, variant Q226A)
Adenosine receptor A2a: B1 Adenosine receptor A2a with L203A, Q226A
B12: S213A: A2aR point mutant (protein, UniProt P29274 1-412, looked up, variant S213A)
Adenosine receptor A2a: B1 Adenosine receptor A2a with L203A, S213A
B13: N284A: A2aR point mutant (protein, UniProt P29274 1-412, looked up, variant N284A)
Adenosine receptor A2a: B1 Adenosine receptor A2a with L203A, N284A
B14: T224A: A2aR point mutant (protein, UniProt P29274 1-412, looked up, variant T224A)
Adenosine receptor A2a: B1 Adenosine receptor A2a with L203A, T224A
B15: L267A: A2aR point mutant (protein, UniProt P29274 1-412, looked up, variant L267A)
Adenosine receptor A2a: B1 Adenosine receptor A2a with L203A, L267A
B16: K227A: A2aR point mutant (protein, UniProt P29274 1-412, looked up, variant K227A)
Adenosine receptor A2a: B1 Adenosine receptor A2a with L203A, K227A
B17: H230A: A2aR point mutant (protein, UniProt P29274 1-412, looked up, variant H230A)
Adenosine receptor A2a: B1 Adenosine receptor A2a with L203A, H230A
B18: P313A: A2aR point mutant (protein, UniProt P29274 1-412, looked up, variant P313A)
Adenosine receptor A2a: B1 Adenosine receptor A2a with L203A, P313A
B19: L272A: A2aR point mutant (protein, UniProt P29274 1-412, looked up, variant L272A)
Adenosine receptor A2a: B1 Adenosine receptor A2a with L203A, L272A
B20: A385L: NTR point mutant (protein, UniProt P20789 1-424, looked up, variant A385L)
Neurotensin receptor type 1: MHLNSSVPQGTPGEPDAQPFSGPQSEMEATFLALSLSNGSGNTSESDTAGPNSDLDVNTDIYSKVLVTAIYLALFVVGTVGNSVTAFTLARKKSLQSLQSTVHYHLGSLALSDLLILLLAMPVELYNFIWVHHPWAFGDAGCRGYYFLRDACTYATALNVASLSVERYLAICHPFKAKTLMSRSRTKKFISAIWLASALLAIPMLFTMGLQNRSGDGTHPGGLVCTPIVDTATVKVVIQVNTFMSFLFPMLVISILNTVIANKLTVMVHQAAEQGRVCTVGTHNGLEHSTFNMTIEPGRVQALRHGVLVLRAVVIAFVVCWLPYHVRRLMFCYISDEQWTTFLFDFYHYFYMLTNALFYVSSAINPILYNLVSANFRQVFLSTLLCLCPGWRHRRKKRPTFSRKPNSMSSNHAFSTSATRETLY
B21: A86L: NTR point mutant (protein, UniProt P20789 1-424, looked up, variant A86L)
Neurotensin receptor type 1: B20 Neurotensin receptor type 1 with A86L, L385A
B22: D345A: NTR point mutant (protein, UniProt P20789 1-424, looked up, variant D345A)
Neurotensin receptor type 1: B20 Neurotensin receptor type 1 with D345A, L385A
B23: Y349A: NTR point mutant (protein, UniProt P20789 1-424, looked up, variant Y349A)
Neurotensin receptor type 1: B20 Neurotensin receptor type 1 with Y349A, L385A

Test: Thermostability of A2aR and mutants (ligand binding after or during heating)
Type: physicochemical
Settings: Ligand(−) format, binding after the heating step
Excerpt: FIG. 12 Flow chart showing the two different assay formats of ligand (+) and ligand (−) used to determine receptor thermostability.
• 1. 315 site-directed mutants made between residues 2-316 of A2aR. • 2. All of these mutants have been assayed for thermostability using an assay measuring agonist and antagonist binding after the heating step (Ligand(−) format as described in FIG. 12). • a. […] Mutations have been combined to generate mutants in a putative antagonist conformation. Wildtype A2aR has a Tm of 31° C. with ZM241385 bound. • a. Rant17 A54L+K122A+L235A Tm 48° C. (ZM241385 bound) • b. Rant19 A54L, T88A, V239A+A204L Tm 47° C. (ZM241385 bound) • c. Rant21 A54L, T88A, V239A+K122A Tm 49° C. (ZM241385 bound) • 4. Mutations from the agonist screen have been combined, but have led to only a very low level of improvement in Tm of +2° C.

Molecule | thermostability assayed with 3H-ZM241385 (antagonist) | thermostability measured with 3H-NECA (agonist)
B1 | improved thermostability | improved thermostability
B2 |  | improved thermostability
B3 |  | improved thermostability
B4 |  | improved thermostability
B5 |  | improved thermostability
B6 |  | improved thermostability
B7 |  | improved thermostability
B8 |  | improved thermostability
B9 |  | improved thermostability
B10 |  | improved thermostability
B11 |  | improved thermostability
B12 |  | improved thermostability
B13 |  | improved thermostability
B14 |  | improved thermostability
B15 |  | improved thermostability
B16 |  | improved thermostability
B17 |  | improved thermostability
B18 |  | improved thermostability
B19 |  | improved thermostability

Test: Thermostability of NTR and mutants (3H-neurotensin binding)
Type: physicochemical
Settings: Ligand(+) format

Molecule | thermostability, heated in the presence of 3H-neurotensin
B20 | improved thermostability
B21 | improved thermostability

Same assay, conditions: heated in the absence of the agonist

Molecule | thermostability, 3H-neurotensin (agonist) binding after the heating step
B22 | small but significant increase in thermostability
B20 | small but significant increase in thermostability
B21 | small but significant increase in thermostability
B23 | small but significant increase in thermostability
